The record followed here is patent publication US6355785.

Where only a bound is given, the exact number is not on record here.

Series [1] has as its target HIV-1 gp120 (Human immunodeficiency virus 1) (UniProt P04578). Kind of series: competition. Conditions: ID50 for gp120, gp120-CD4 interaction.
For series [2], the target named is T1, SIV integrase (Simian immunodeficiency virus) (UniProt P05897).
T1 sequence: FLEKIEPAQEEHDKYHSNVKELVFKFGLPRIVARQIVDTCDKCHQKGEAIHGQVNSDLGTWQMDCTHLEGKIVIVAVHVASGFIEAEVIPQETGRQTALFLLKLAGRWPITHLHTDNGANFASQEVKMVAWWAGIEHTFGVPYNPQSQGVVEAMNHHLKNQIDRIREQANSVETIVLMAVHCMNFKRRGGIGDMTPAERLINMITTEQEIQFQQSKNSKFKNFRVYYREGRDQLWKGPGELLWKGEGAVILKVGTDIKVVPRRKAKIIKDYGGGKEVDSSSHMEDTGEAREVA
Kind of series: inhibition. Conditions: PS at first and last internucleoside linkages (pPT), 3'-OH; 3'-processing.

The target of series [3] is HIV-1 integrase wild-type (IN1-288) (Human immunodeficiency virus 1) (UniProt P12497). Kind of series: inhibition. The conditions noted are these: I, 3'-processing.

As to GATCCATGTCAGTGACAC [1231 random GATC], in series [1] (phosphodiester, 3'-amine), the IC50 (usually the concentration that inhibits the measured activity by half) is more than 100000 nM.

In series [1] (PS all linkages, 3'-amine), GATCCATGTCAGTGACAC [1232 random GATC] returned a concentration for half-maximal inhibition (IC50) of more than 10000 nM.

In series [1] (phosphodiester, 3'-amine), GGGTGGGTGGGTGGGTGG [1173] displayed an IC50 of more than 100000 nM.

Sequence GGGTGGGTGGGTGGGTGG [1174] gave a concentration for half-maximal inhibition (IC50) in series [1] (PS all linkages, 3'-amine) of 90 nM.

Turning to GTGGTGGGTGGGTGGGT [T30177 (AR177)], in series [2], the IC50 is 420 nM.

On to “GTGGTGGGTGGGTGGGTGGTGGGTGGTGGTTGTGGGTGGGTGGTG [I100-07]”, for which the half-inhibitory concentration (IC50) in series [1] (phosphodiester, 3'-amine) was 800 nM.

In series [1] (PS all linkages, 3'-amine), “GTGGTGGGTGGGTGGGTGGTGGGTGGTGGTTGTGGGTGGGTGGTG [I100-21]” had an IC50 of 70 nM.

In turn, GTTGGGGGTTGTTGGTGGGGTGGTGG [I100-00] registered an IC50 in series [1] (phosphodiester, 3'-propanolamine) of 3500 nM.

As for GTTGGGGGTTGTTGGTGGGGTGGTGG [I100-12], the concentration for half-maximal inhibition (IC50) in series [1] (PS all linkages, 3'-amine) amounted to 80 nM.

In the case of “TCTTCCTCTCTCTACCCACGCTCIC [T30531 antisense GEM91 variant PT]”, the IC50 in series [3] (PS all linkages, strand transfer 0.036) came out at 30 nM.

With “TCTTCCTCTCTCTACCCACGCTCIC [T30658 antisense GEM91 variant PD]”, in series [3] (all phosphodiester, strand transfer >0.5), the IC50 was more than 500 nM.

“TCTTCCTCTCTCTACCCACGCTCIC [T30662 antisense GEM91 variant pPT]” had an IC50 in series [3] (PS at first and last linkages (pPT), strand transfer >0.5) of more than 500 nM.
